The DeepSol protein solubility set

Assay: soluble on expression in E. coli; label from the status in PepcDB or PDB records

| Sequence | soluble on expression in E. coli |
| --- | --- |
| GYMDLMPFINKAGCECLNESDEHGFDNCLRKDTTFLESDCDEQLLITVAFNQPVKLYSMKFQGPDNGQGPKYVKIFINLPRSMDFEEAERSEPTQALELTEDDIKEDGIVPLRYVKFQNVNSVTIFVQSNQGEEETTRISYFTFIGTPVQATNMNDFK | soluble |
| MIAGATAPSSQHEILIASNLIKKPSTSQNKTPTAQSSSGNNGAADGAPQGYHHHHHHHRHLWWPRTTDHQYWCVLRKNQFAYYKTRDEREAISVIPRFDILNFKISELDGILTVYTPSKDLIFKFPRGQNEKVGMELMHNWKIALEKFLSSPSGNESVTTGSDYDEEEDDDDLIVVDEKAGPSSSKHSCSLTMDEQLSREDKEFYRMFDPRNAEHQVCSGILYTKVKKKKLFNRAKWQKFNVELTNTSFNLYSFKTGKLKKSIKLDKIIDCIELDNNSKMKNDDTNFALITFDERLSFKAANDQDMVDWIINFKSGILIRKKLKAENI | soluble |
| MAQPYLPAEKFLSRKQETILLDEDEPAVVSSVRISPKKPYHVATTSSVRLTLYDTVVCEPLNLFSRFKKGVCSIDFRHDGRLLAIGGDEGKVRIFDVEKTTGSSKVALRVMQASQSTVKSVHFSPRGDTVFSMADDGKIKQYRVADTAYGVNAVPIIEIQAHEDAIRCGAVSSINDHIVLTGGYDHKVRLWDIRSKEKSLELDCEHPVESVLFLPGEQLIATAAGPIVKIWDTTTGRQLTALQAHYKTVTSLRLATNSTCLLSAGIDRRVNAFRTTNYSLINSWSMPSPVLDIDVSRDDQTMAIGMGNLLALYRRAEIKKEATASAAIEDKRSLIRTSAPPVKLVEKDRDMQKVDVVAKNADKLKIPKIDGMLSNFKHAAVIKLLFGGKFRSAMDTAVVSYLRVIVMRGAIHRALAGQERSVQKNILVFLNHNLYKAQYFSTLKEVVNAFFDVYALEKLDKDVVKHVQSLRGSLGRELEVQKMISSLIGSIDLIVSTTKMNVKSSSTALIEDNDVFGEPTIRARDLDELKPSDQGAEEEYEENMQIN | not soluble |
| MGSDKIHHHHHHESGDIITSDQMDEVDPVAGLNGMYAYLYKFDTMGYGDEAQHYDYGYHHILLCSDLWGQDMIQYSSKYGWYYTDYQFNQNSRAYQYISTFYFWNYLYKLIKSANDVLKTTTDDSKKEDRGQALGMRAFAYLTLVQMYQHTYAGHENAPAVPIVLETTEPDVLSNNPRASVKEVYDLIEKDLVQAHSDLSSYQRLNSTYIDQTVISGLLARMYLLKEDWTNAAKYAKEARASYGAPADKAELIDEGYIDMNKHHTWMFTSHITTDAEIVQTGIVNFISHISSTAYGYVTAGGMFKNISSELYSKIADNDIRKGWFADKDFTYEGGPMGSVALPKYANLKYMWYDLEGNNCNDLCYMRAEEMWLIEAEALAMGGNIAGGKSLLEEFVKTRQPDYVCDATDAKGIQDACWLQRRIEFWGEGIAWFDLKRLKKPIIRKYEGTNHNLDAQYDFPAEDDIFRILIPRKEIQDNNGIGEEDNNPMPNI | not soluble |
| MQLPVMPPVSPMLAKSVTAIPPDASYEPKWDGFRSICFRDGDQVELGSRNERPMTRYFPELVAAIRAELPHRCVIDGEIIIATDHGLDFEALQQRIHPAESRVRMLADRTPASFIAFDLLALGDDDYTGRPFSERRAALVDAVTGSGADADLSIHVTPATTDMATAQRWFSEFEGAGLDGVIAKPPHITYQPDKRVMFKIKHLRTADCVVAGYRVHKSGSDAIGSLLLGLYQEDGQLASVGVIGAFPMAERRRLLTELQPLVTSFDDHPWNWAAHVAGQRTPRKNEFSRWNVGKDLSFVPLRPERVVEVRYDRMEGARFRHTAQFNRWRPDRDPRSCSYAQLERPLTVSLSDIVPGLR | not soluble |
| DPAVTYYRLEEVAKRNTAEETWMVIHGRVYDITRFLSEHPGGEEILLEQAGADATESFEDIGHSPDAREMLKQYYIGDVHPNDLKP | soluble |
| MEQQIQMDEQENDESQGNDDQQNMSMSSSELHTMQDDHPGILLKTNTRMSITVKKLHVCGEWKWLQGGEDTCGICRMEFESACNMCKFPGDDCPLVLGICRHAFHRHCIDKWIAAPTNQPRAQCPLCRQDWTIVE | not soluble |
| KEPEMRPLGAYDTEELIPVLDYLDQQKINYKLDGNTVSVESSEYNSIKLGMVRSGVNQATEAGDDILLQDMGFGVSQRLEQERLKLSRERQLAQAIEEMKQVRKARVLLALPKHSVFVRHNQEASASVFLTLSTGANLKQQEVDSIVDMVASAVPGMKTSRITVTDQHGRLLSSGSQDPASAARRKEQELERSQEQALREKIDSVLLPILGFGNYTAQVDIQMDFSAVEQTRKRFDPNTPSTRSEYALEDYNNGNMVAGIPGALSNQPPADASIPQDVAQMKDGSVMGQGSVRKESTRNFELDTTISHERKQTGTVARQTVSVAIKDRRQVNPDTGEVTYTPMSEGEINAIRQVLIGTVGFDQSRGDLLNVLSVKFAEPETEQLVDQPIWEHPNFND | not soluble |
| MSELSGKGCEIIVPFEERLPVRDIEKSIIKKYRKNLWSKFMKAIRDYKLVEEGDKIAVAISGGKDSILMAKMFQELKKHGQVNFDVEFIAMDPGYHANIRQLLIDNCEYLNIPIHLFDSRIFEIADEIAKDYPCYMCARMRRGALYSKAEELGCNKLALGHHYDDVIETTMLNLLCAGNFKTMLPKLNSTNFEGIKIIRPLYYIREEHIIRFIQNSGIWPLNCAC | not soluble |
| MGSDKIHHHHHHMSKHQNDNPRVPHEAAPLRVLHVGPGQGQRGGIASVLAELSAQRARFRDAGVVVAIFETHGFQSMRSLLCFPLVDIPRFLFAVLKGVDLIHFHVSVRGSFYRKFLLYLLARLFGKRTIFHLHAGNFQDFWASNGPTTRKAVSRFIRGADAVVAVSSAIASELQGHQGVTRNLYVIGNTAYSAELAAGAALRDSSGGKRVDMTPYVAFAGRFTEGKGLDELLRAVAALNRRGLKVQLRLAGAGDMDRWTRAAIEYGVSDQVRFVGWLQGDAKLEFYRDAAVFCMPSHFEAFGISTLEAMFIGRPVIGTRVGGFLDLVEEGVTGYLVRCGDSHGLAERIRHLVERPELAHEMGRQAVSRALSRYSVDAIVSQYARCYRQVNGSRGA | not soluble |
| MGRGVYTLALRGLAPLIWLWMWRRARRAGGQWELFAPARFGRAGARAPAPLAAPVWVHAVSLGETRAAQPLVQALLERGLPVLLTHTTATGRAEGERLFGAAIGRGQLQQAWLPYDFPGATRRFLARHAPRCGLLIEREVWPNLLAAARAQGVPMALVSARFSASSLRQAGWLGQALREALAGLGRVLAQTDEDGARLCQAGANAYTVTGSLKFDVALPEAQLRVGHAWAGATGRPVIALASTREGEDAMFIEAIGALQAHRAATPRPLILLIPRHPQRFDEAAAQLQAAGLAYARRSAGSGEPGPHIDVLLGDTLGEMPFYYAAADVAIVGGSFARLGGQNLIEACAAGTPVIVGPHTFNFKDAARDAIAAGAALRAPDARTALDWALQLLAEPARRQAMSEAARAWTAAHAGATRRTLDALEDWLAPRLEHHHHHH | soluble |
| MGHHHHHHSHPPTAPDRATAVATASRLGPYVLLEPEEGGRAYQALHCPTGTEYTCKVYPVQEALAVLEPYARLPPHKHVARPTEVLAGTQLLYAFFTRTHGDMHSLVRSRHRIPEPEAAVLFRQMATALAHCHQHGLVLRDLKLCRFVFADRERKKLVLENLEDSCVLTGPDDSLWDKHACPAYVGPEILSSRASYSGKAADVWSLGVALFTMLAGHYPFQDSEPVLLFGKIRRGAYALPAGLSAPARCLVRCLLRREPAERLTATGILLHPWLRQDPMPLAPTRSHLWEAAQVVPDGLGLDEARE | not soluble |
| MEKDHSSLFYYDQYSKFSRSSQGCRSLNKFSRFNNFRTSACFFDASKPKSDVQPFKKIRYSSEHGCLTMSFDSPSSCPSTSFLCDLSQNLVRGNAHIPKFYTRDLISTIGSRDHYSVDLIPKFGENTSIMKDFKDWGTDLSLQM | not soluble |
| MKTVVFAYHDMGCLGIEALLAAGYEISAIFTHTDNPGEKAFYGSVARLAAERGIPVYAPDNVNHPLWVERIAQLSPDVIFSFYYRHLIYDEILQLAPAGAFNLHGSLLPKYRGRAPLNWVLVNGETETGVTLHRMVKRADAGAIVAQLRIAIAPDDIAITLHHKLCHAARQLLEQTLPAIKHGNILEIAQRENEATCFGRRTPDDSFLEWHKPASVLHNMVRAVADPWPGAFSYVGNQKFTVWSSRVHPHASKAQPGSVISVAPLLIACGDGALEIVTGQAGDGITMQGSQLAQTLGLVQGSRLNSQPACTARRRTRVLILGVNGFIGNHLTERLLREDHYEVYGLDIGSDAISRFLNHPHFHFVEGDISIHSEWIEYHVKKCDVVLPLVAIATPIEYTRNPLRVFELDFEENLRIIRYCVKYRKRIIFPSTSEVYGMCSDKYFDEDHSNLIVGPVNKPRWIYSVSKQLLDRVIWAYGEKEGLQFTLFRPFNWMGPRLDNLNAARIGSSRAITQLILNLVEGSPIKLIDGGKQKRCFTDIRDGIEALYRIIENAGNRCDGEIINIGNPENEASIEELGEMLLASFEKHPLRHHFPPFAGFRVVESSSYYGKGYQDVEHRKPSIRNAHRCLDWEPKIDMQETIDETLDFFLRTVDLTDKPS | soluble |
| MISAFDIFKIGIGPSSSHTVGPMNAGKCFIDRLIDSGDLPRTTRITVDLYGSLSLTGKGHATDTAVIMGLAGNTPQDVNIDSIPAFIQEVARSSRLSVAGGAHVVDFPVADSIFFHAETLARHENGMRITAWNGQAPLLHKTYYSIGGGFIVEEERFGQSHDVEKSVPYDFHSASELLTLCERQGLSVSGLMMQNELALRSKEQIDAGFARIWQVMATGIERGMNTEGVLPGPLNVPRRAVALRRLLVSSDNLSRDPMNVIDWINMFALAVSEENAAGGRVVTAPTNGACGIIPAVLAYYDKFRRPVNANSIARYLLSAGAIGMLYKMNASISGAEVGCQGEVGVACSMAAAGLTELLGGSPAQVCIAAEIAMEHNLGLTCDPVAGQVQIPCIERNAINAVKAVNAARMALRRTSEPRVSLDKVIETMYETGKDMNDKYRETSRGGLAIKVVCG | not soluble |
| MAIDNIKAYVHLSDADIEEIGRRLDQIKAEVTQSLGARDVAYIKRLIRTQRSLEAAGRFALLFAGNKKCWWLGTGLLSTAKILENLEIGHNVLHGQWDWMNDPEIHSTTWEWDIVCPSSQWMHSHNFVHHTYTNVLGMDNDVGYGILRVTRDRKWTPLHAFQPAVNTVLAAMFQWAVGYYDVELGRYLTKRADWNDTKDKFWETTNKAGRQLARDYVFYPALARKAFPQAVKANAVANLVRSVWAYSVIFCGHFPDEAETFTKEQFKNEDHNQWYLRQMLGSANFYGGKLLTIMSGNLNYQIEHHLFPDMPSNRLAEVGEKVRALCDEYDLPYNVDSFPAQLFKVQKTLLKLTLPNKYLVASPDNAPEVRSNRAFSQNPEIENQLAGGSNGSGLRTGLKLLKRLRPSIKDAILIYSGRKPRGNQQR | not soluble |
| MSLKDNEKYNALDFIKDDEINSLIAKGKELVSDKELVREIIEKSKSAEGLTPEETAVLLNLEDKELIEEMFKAARQVKEKLYGKRLVVFAPLYVSNYCVNNCTYCGYKHCNDELKRKKLNKEQLIEEVKVLESLGHKRIALEAGEDPVNAPLDYILDCIKSIYSIKFDNGSIRRINVNIAATSVEDYKRLKDAEIGTYILFQETYHKPTYERLHVSGPKHNYNYHTTAMHRAREAGIDDIGMGVLYGLYDYKYETLAMLMHAMDLEETTGVGPHTLSVPRIRPAENVSLENYPYLVDDEDFKKIVAILRLAVPYAGLILSTREEPGLRDEIIALGVSQVSTGSCTGVGGYSESYIDPEEKPQFEVGDHRSPVEMIESLMEAGYIPSYCTACYREGRTGERFMDIVKSGELYKICEANALITLKEFIDDYGTDRTREIGDKLIKKSIDEIDNESFRKSVEEKINKISNGTRDLRFEGHHHHHH | soluble |
| MRVVLAPMEGVLDYRMRDLLTQVGSYDLCVTEFIRVVDQVLPDRVFHRYCPELIDADVYGSCTKAGTPVRVQLLGQYPEYMAENAAKVIELGSSGIDLNFGCPSKTVNKSRGGSILLKDPENLYQIIKAVKEAVPSDTIVSAKIRLGYEDKTLAIENGQAVEAAGANELTIHARTKLEGYKPPAHWHWIAKVKNAINIPVIANGEIWNLEDAIKCREISGCTDLMVGRGALTIPNLGQVIKQESDNMPWLEVRAILSAYTEFETHGDKSKYYCNRIKQWLKYLKSHYKEADVLFDEIRRLKTAEGIRAAL | not soluble |
